Reference: US20250243286A1 (SIXPEAKS BIO, published 2025)
Residue numbers refer to the chain shown, from its start. In names and notes the source's numbering stands.

T1: human ActRIIB (human, UniProt Q13705 19-137, limits assumed)
T1 construct: antigen in MSD-SET; also called ACVR2B; ActR2B
T1 sequence: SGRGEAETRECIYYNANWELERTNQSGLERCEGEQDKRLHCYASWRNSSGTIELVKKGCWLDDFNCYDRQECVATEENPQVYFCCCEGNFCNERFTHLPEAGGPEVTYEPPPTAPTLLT

B1: Schwardamaga, Human IgG1-PALALA (antibody, V domains shown)
VH: QVQLVQSGAEVKKPGSSVKVSCKASGYTFTSSYINWVRQAPGQGLEWMGTINAVSGSTSYAQKFQGRVTITADTSTSTAYMELSSLRSEDTAVYYCARGGWFDYWGQGTLVTVSS
VL: QSALTQPRSVSGSPGQSVTISCTGTSSDVGSANYVNWYQQHPGKAPKPMIYGVSRRPSGVPDRFSGSKSGNTASLTISGLQAEDEADYYCGTFAGGKYYGVFGGGTKLTVL
notes: human IgG1 with PA-LALA (L234A/L235A/P329A), EU numbering
B2: Schwardamaga, Human IgG1-PALALA-YTE (antibody, V domains shown)
VH: B1 VH
VL: B1 VL
notes: human IgG1 with PA-LALA (L234A/L235A/P329A) and YTE (M252Y/S254T/T256E), EU numbering
B3: Schwardamaga, Mouse IgG2a-PALALA (antibody, V domains shown)
VH: B1 VH
VL: B1 VL
notes: mouse IgG2a constant region with PALALA
B4: Soidawürstle, Human IgG1-PALALA (antibody, V domains shown)
VH: B1 VH with K12R, A53P
VL: B1 VL with A32Y, Y34R, P48L, R55K, P57E, K97R
notes: as for B1
B5: Soidawürstle, Human IgG1-PALALA-YTE (antibody, V domains shown)
VH: B1 VH with K12R, A53P
VL: B1 VL with A32Y, Y34R, P48L, R55K, P57E, K97R
notes: as for B2
B6: Soidawürstle, Mouse IgG2a-PALALA (antibody, V domains shown)
VH: B1 VH with K12R, A53P
VL: B1 VL with A32Y, Y34R, P48L, R55K, P57E, K97R
notes: as for B3
B7: Ofaschlupfer, Human IgG1-PALALA-YTE (antibody, V domains shown)
VH: B1 VH
VL: B1 VL with A32K, P48L, R55K, P57E
notes: as for B2
B8: Ofaschlupfer, Human IgG1-PALALA (antibody, V domains shown)
VH: B1 VH
VL: B1 VL with A32K, P48L, R55K, P57E
notes: as for B1
B9: Ofaschlupfer, Mouse IgG2a-PALALA (antibody, V domains shown)
VH: B1 VH
VL: B1 VL with A32K, P48L, R55K, P57E
notes: as for B3
B10: Antibody Mauldascha (antibody, V domains shown)
VH: B1 VH with T74E
VL: B1 VL with A32Y, P48L, R55K, P57E
B11: Antibody Metzelsupp (antibody, V domains shown)
VH: B1 VH
VL: B1 VL with A32F, P48L, Y51R, R55K, P57E, K97A
B12: Antibody Nonnafürzla (antibody, V domains shown)
VH: B1 VH
VL: B1 VL with A32Y, P48L, R55K, P57D
B13: Antibody Oierspätzla (antibody, V domains shown)
VH: B1 VH with A53P
VL: B1 VL with A32Y, P48L, R55K, P57E, K97A
B14: Antibody Rauchfloisch (antibody, V domains shown)
VH: B1 VH
VL: B1 VL with A32R, P48L, R55K, P57E, K97D
B15: Antibody Zibebe (antibody, V domains shown)
VH: B1 VH with T28K, T74E
VL: B1 VL with A32Y, P48L, R55K, P57E
B16: Antibody Schnitzbrot (antibody, V domains shown)
VH: B1 VH with T28K
VL: B1 VL with A32Y, P48L, R55K, P57D
B17: Antibody Wiebela (antibody, V domains shown)
VH: B1 VH with T28K
VL: B1 VL with A32K, P48L, R55K, P57E
B18: Antibody Krapfa (antibody, V domains shown)
VH: B1 VH with Y27H, T28K
VL: B1 VL with A32K, P48L, R55K, P57E
B19: Antibody Seela (antibody, V domains shown)
VH: B1 VH with T28K
VL: B1 VL with A32K, P48H, R55K, P57E
B20: Antibody Peitscheschdegga (antibody, V domains shown)
VH: B1 VH with T28K
VL: B1 VL with A32K, P48L, Y51H, R55K, P57E
B21: Antibody Hegemark (antibody, V domains shown)
VH: B1 VH with T28K
VL: B1 VL with A32K, P48L, R55K, P57H
B22: Antibody Hutzelbrot (antibody, V domains shown)
VH: B1 VH with S16A, I70M, A72R, T76I, S85R, E89D
VL: B1 VL with R8A, V18I, A32K, P48L, R55K, P57Q, P61S, D62N, K97D
notes: full-length IgG
B23: Antibody Pfitzauf (antibody, V domains shown)
VH: B1 VH with S16A, A53P, I70M, A72R, T76I, S85R, E89D
VL: B1 VL with R8A, V18I, A32G, P48L, R55K, P57E, P61S, D62N
notes: full-length IgG
B24: Antibody Springerle (antibody, V domains shown)
VH: B1 VH with S16A, A53P, I70M, A72R, T76I, S85R, E89D
VL: B1 VL with R8A, V18I, A32Y, P48L, R55K, P57E, P61S, D62N, K97S, Y99R
notes: full-length IgG
B25: Antibody Ochsauga (antibody, V domains shown)
VH: B1 VH with S16A, I70M, A72R, T76I, S85R, E89D, Y104V
VL: B1 VL with R8A, V18I, V29I, A32Y, P48L, R55K, P57E, P61S, D62N, K97S
notes: full-length IgG
B26: Antibody Floischbrühsupp (antibody, V domains shown)
VH: B1 VH with S16A, I70M, A72R, T76I, S85R, E89D
VL: B1 VL with R8A, V18I, A32F, P48L, Y51K, R55K, P57E, P61S, D62N, K97A
notes: full-length IgG
B27: Antibody Hasaschlegel (antibody, V domains shown)
VH: B1 VH with S16A, I70M, A72R, T76I, S85R, E89D
VL: QSALTQPASVSGSPGQSITISCTGTSSDVGSYDYVNWYQQHPGKAPKLMIHGVSKRESGVSNRFSGSKSGNTASLTISGLQAEDEADYYCGTFAGGSYYGVFGGGTKLTVL
notes: full-length IgG
B28: Antibody Dürrfloischeggla (antibody, V domains shown)
VH: B1 VH with S16A, I70M, A72R, T74V, T76I, S85R, E89D
VL: B27 VL with D33N, Y34V, H51S, S97K
notes: full-length IgG
B29: Ochsamaulsalat Fab (Fab, V domains shown)
VH: B1 VH with S16A, I70M, A72R, T76I, S85R, E89D
VL: B27 VL with Y32R, D33N, H51Y, S97D
notes: Fab

Target: T2, human ActRIIA (human, UniProt P27037 20-135, limits assumed)
T2 construct: antigen in MSD-SET; also called ACVR2A; ActR2A
T2 sequence (P27037 20-135 limits assumed): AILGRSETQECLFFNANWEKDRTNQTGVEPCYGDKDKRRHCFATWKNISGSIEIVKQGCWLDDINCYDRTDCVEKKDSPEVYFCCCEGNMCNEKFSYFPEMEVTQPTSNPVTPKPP
Experiment: MSD-SET

Binder | Kd [nM]
B1 | 0.036
B2 | 0.04
B3 | 0.039
B4 | 0.025
B5 | 0.034
B6 | 0.027

Target: T1, human ActRIIB
Experiment: MSD-SET

Binder | Kd [nM]
B1 | 0.011
B2 | 0.013
B3 | 0.016
B4 | 0.006
B5 | 0.005
B6 | 0.003
B7 | 0.003
B8 | 0.003
B9 | 0.004

Target: T3, ActRIIA and ActRIIB (on TGFB/SMAD SBE Reporter HEK293 cells) (human)
Experiment: cell-based or functional assay

Binder | IC50, Activin SMAD RGA [nM] | IC50, Myostatin SMAD RGA [nM] | IC90, Activin SMAD RGA [nM] | IC90, Myostatin SMAD RGA [nM]
B10 | 1.83 | 1.42 | 6.72 | 13.4
B11 | 0.573 | 0.713 | 3.79 | 7.72
B12 | 0.505 | 1.32 | 3.81 | 27.3
B13 | 0.361 | 0.96 | 3.06 | 16.8
B14 | 0.668 | 1.31 | 5.11 | 18.2
B15 | 0.542 | 1.46 | 7.83 | 19
B16 | 0.312 | 0.624 | 2.52 | 19.1
B17 | 0.253 | 0.25 | 3.96 | 14.8
B18 |  | 0.0497 |  | 10400
B19 | 0.338 | 0.473 | 4.74 | 18.2
B20 | 0.299 | 2.84 | 4.92 | 48.4
B21 | 0.304 | 0.516 | 4.37 | 23.4

Target: T3, ActRIIA and ActRIIB (on TGFB/SMAD SBE …)
Experiment: cell-based or functional assay
Remark: another data set of the same source

Binder | IC50, Activin SMAD RGA [nM] | IC50, Myostatin SMAD RGA [nM] | IC90, Activin SMAD RGA [nM] | IC90, Myostatin SMAD RGA [nM] | IC50 [nM] (assay not given) | IC50 fold difference to bimagrumab (assay not given) [fold] | IC90 [nM] (assay not given) | IC90 fold difference to bimagrumab (assay not given) [fold]
B22 | 0.422 | 0.73 | 3.62 | 3.06 |  |  |  | 
B23 | 0.231 | 0.0984 | 3.03 | 1.35 |  |  |  | 
B24 | 0.094 |  | 1.38 |  | 0.0946 | 5.46 | 1.5 | 5.4
B25 | 0.238 | 0.327 | 3.15 | 2.21 |  |  |  | 
B26 | 0.324 | 0.394 | 4.69 | 2.62 |  |  |  | 
B27 | 0.722 | 0.977 | 5.56 | 6.59 |  |  |  | 
B28 | 0.423 | 0.679 | 4.86 | 6.09 |  |  |  | 

Target: T3, ActRIIA and ActRIIB (on TGFB/SMAD SBE …)
Experiment: cell-based or functional assay
Remark: another data set of the same source

Binder | IC50, Activin SMAD RGA [nM] | IC50, Myostatin SMAD RGA [nM]
B29 | 1.5 | 2.32

Target: T2, human ActRIIA
Experiment: MSD-SET
Remark: another data set of the same source

Binder | Kd [nM]
B22 | 0.021
B23 | 0.052
B24 | 0.027
B25 | 0.016
B26 | 0.023
B27 | 0.018
B28 | 0.033

Target: T1, human ActRIIB
Experiment: MSD-SET
Remark: another data set of the same source

Binder | Kd [nM]
B22 | 0.01
B23 | 0.008
B25 | 0.006
B26 | 0.01
B27 | 0.013
B28 | 0.009

Target: T2, human ActRIIA
Experiment: MSD-SET
Remark: another data set of the same source

Binder | Fold Difference to bimagrumab [fold] | Kd [nM]
B24 | 7.3 | 0.027

Target: T2, human ActRIIA
Experiment: MSD-SET
Remark: another data set of the same source

Binder | Kd [nM]
B29 | 0.055

Target: T1, human ActRIIB
Experiment: MSD-SET
Remark: another data set of the same source

Binder | Kd [nM]
B29 | 0.062
